Results as given in publication PMC8699727.

Molecular target: Microtubules polymerized from purified porcine brain tubulin (porcine) (UniProt P02550)
Assay: co-sedimentation

- Kd: 670 nM
Substance: GST-TAOK2-C (1,187–1,235) (from UniProt Q9UL54 1187-1235) (domain or fragment)
